According to the Human Domainome abundance scans (Beltran et al. 2025):

B1: Ankyrin-3, residues 4094 to 4171; numbered along this chain, Q12955 (parent)
chain: MAIVADHLGLSWTELARELNFSVDEINQIRVENPNSLISQSFMLLKKWVTRDGKNATTDALTSVLTKINRIDIVTLLE

Variants of: B1
Test: abundance fitness (aPCA) (normalised: wild type 0, dead -1); higher = more abundant; growth selection in yeast, the domain comes from the species named
Conditions: Homo sapiens

Abundance fitness of substitutions, site by site:
I29: V -0.302 | E -0.174 | A -0.768 | W -0.979 | L -0.456 | T -0.752 | P -0.808 | R -0.857 | G -0.927 | F -0.765 | C -0.741 | H -0.389 | S -0.846
V31: C 0.049 | L 0.087 | K 0.044 | E -0.139 | W -0.165 | S -0.006 | D 0.058 | F -0.086 | Q 0.003 | R 0.041 | P -0.929 | G -0.089 | T 0.026 | H 0.145 | M -0.191 | Y 0.057 | A -0.07
N27: F -0.244 | L -0.383 | C -0.238 | A -0.082 | W -0.35 | E -0.191 | R -0.11 | K -0.112 | P -0.926 | Y -0.149 | G -0.798 | S -0.125 | H -0.06 | T -0.174 | D -0.272 | V -0.373 | Q 0.012
I26: Q -0.594 | R -0.522 | M -0.544 | K -0.953 | S -0.805 | L -0.96 | T -0.755 | P -0.894 | V -0.076 | C -0.561 | D -0.886 | W -0.871 | E -0.848
P34: D -0.268 | A -0.245 | C -0.7
R30: C -0.112 | E -0.088 | M 0.111 | T -0.158 | I 0.064 | Y -0.061 | L -0.033 | K -0.02 | W -0.453 | P -0.232 | A -0.022 | F -0.628 | G -0.385 | S -0.074 | V -0.172 | Q -0.188
D24: N -0.197 | Q 0.063 | S -0.199 | V -0.341 | Y -0.228 | P -0.352 | E 0.053 | W -0.435 | I -0.4 | T -0.152 | F -0.621 | H -0.068 | K -0.195 | M -0.424 | C -0.342 | L -0.272
N33: L -0.755 | Y -0.168 | E 0.055 | C 0.034 | K -0.208 | P -0.812 | M -0.143 | Q 0.093 | H -0.023 | F -0.082 | R -0.148 | S -0.014 | W -0.204 | T -0.091 | G -0.607
E32: W -0.839 | Q -0.1 | N -0.074 | R -0.126 | V -0.316 | D 0.011 | T -0.155 | P -0.593 | C -0.249 | I -0.621 | A -0.039 | S -0.185 | G -0.202 | Y -0.278 | H -0.396 | K -0.48 | M -0.106
Q28: T -0.223 | P -0.652 | C -0.318 | D 0.044 | A 0.044 | W -0.768 | S -0.094 | V -0.399 | M -0.179 | L -0.254 | Y -0.298 | R -0.071 | E 0.035 | I -0.479 | F -0.479 | K -0.134 | H -0.202 | N -0.2 | G -0.264
E25: I -0.754 | K -0.808 | P -0.957 | G -0.826 | F -0.771 | V -0.344 | W -0.887 | T -0.334 | Y -0.792 | M -0.739 | R -0.947 | L -0.862 | Q -0.251 | H -0.859 | D 0.03 | N -0.63 | A -0.457
V23: Y -0.534 | T -0.023 | W -0.049 | S -0.061
